Laboratory results: PMC5502743
Where two headings read alike, the source gives them in different places.

How the values were obtained:
Assay in all cases: single-molecule FRET imaging
[1] = molecular target: Cy3B*/Cy7*-labeled β2Δ6-148C/266C (full-length, minimal cysteine β2 adrenergic receptor mutant) (UniProt P07550)
[2] = molecular target: Cy3B*/Cy7*-labeled β2Δ6-148C/266C (full-length, minimal cysteine β2 adrenergic receptor mutant) (UniProt P07550); remark: listed apart in the source
[3] = molecular target: Cy3B*/Cy7*-labeled β2Δ6-148C/266C (full-length, minimal cysteine β2 adrenergic receptor mutant) (UniProt P07550); remark: listed apart in the source
[4] = molecular target: Cy3B*/Cy7*-labeled β2Δ6-148C/266C (full-length, minimal cysteine β2 adrenergic receptor mutant) (UniProt P07550); remark: listed apart in the source
[5] = molecular target: Cy3B*/Cy7*-labeled β2Δ6-148C/266C (full-length, minimal cysteine β2 adrenergic receptor mutant) (UniProt P07550); remark: listed apart in the source
[6] = molecular target: Cy3B*/Cy7*-labeled β2Δ6-148C/266C (full-length, minimal cysteine β2 adrenergic receptor mutant) (UniProt P07550); remark: listed apart in the source

k (high→low) (transition rate from high- to low-FRET states) [1]: 0.7 s⁻¹ | k (high→low) (transition rate from high- to low-FRET states) [2]: 0.4 s⁻¹ | k (high→low) (transition rate from high- to low-FRET states) [3]: 0.7 s⁻¹ | k (high→low) (transition rate from high- to low-FRET states) [4]: 0.7 s⁻¹ | k (high→low) (transition rate from high- to low-FRET states) [5]: 1.1 s⁻¹ | k (high→low) (transition rate from high- to low-FRET states) [6]: 0.6 s⁻¹ | percent Gs coupling [6]: 5 to 20%
Substance: Gs heterotrimer (Gαs, Gβ and Gγ) (from UniProt P63092 1-394; P62873 1-340; P59768 1-71) (complex)
